Assay results taken from FireProtDB (doi:10.1016/0022-2836(92)90906-z).

B1: Ribonuclease, P00648 (parent)
chain: MMKMEGIALKKRLSWISVCLLVLVSAAGMLFSTAAKTETSSHKAHTEAQVINTFDGVADYLQTYHKLPDNYITKSEAQALGWVASKGNLADVAPGKSIGGDIFSNREGKLPGKSGRTWREADINYTSGFRNSDRILYSSDWLIYKTTDHYQTFTKIR

Variants of: B1
Details: Bacillus amyloliquefaciens; pH 6.3; 25 °C; Urea; Fluorescence; MES 1.00 M; NaCl 613 mM; reversible: yes; structure 1BNI; whole UniProt chain shown

Row | Variant | ddG of mutation (higher = less stable) [kcal/mol] | denaturant m value [kcal/mol/M] | denaturant midpoint (higher = more stable) [M] | unfolding free energy [kcal/mol]
1 | Y64G | 4 | 1.91 | 2.5 | 4.8
2 | Y64S | 2 | 2.08 | 3.25 | 6.8
3 | D59S | 0.9 | 1.85 | 4.29 | 7.9
4 | D59G | 0.2 | 1.87 | 3.97 | 8.6
5 | K74G | -0.2 | 2.11 | 4.29 | 9
6 | S75A | -0.6 | 1.98 | 4.78 | 9.4
7 | S75G | 0.5 | 1.88 | 4.34 | 8.3
8 | D55G | 1.3 | 1.89 | 3.97 | 7.5
9 | D55S | 0.7 | 1.99 | 4.07 | 8.1
10 | H65R W141L | 1.6 | 2.06 | 3.48 | 7.2
11 | T53P | 3.3 | 1.83 | 2.99 | 5.5
12 | H65R | 1 | 1.97 | 3.97 | 7.8
13 | H65D | 2.2 | 2.04 | 3.26 | 6.6
14 | H65S | 2.1 | 1.96 | 3.4 | 6.7
15 | H65A | 1.9 | 1.91 | 3.62 | 6.9
16 | H65N | 1.8 | 1.89 | 3.71 | 7
17 | H65K | 0.9 | 1.99 | 3.96 | 7.9
18 | H65G | 0.7 | 1.91 | 4.21 | 8.1

Row | Variant | ddG of mutation (higher = less stable) [kcal/mol] | denaturant m value [kcal/mol/M] | denaturant midpoint (higher = more stable) [M] | unfolding free energy [kcal/mol]
19 | H65S W141L | 2.8 | 1.86 | 3.24 | 6
20 | H65A W141L | 2.3 | 1.94 | 3.36 | 6.5
21 | G81S | 2.9 | 2.03 | 2.93 | 5.9
22 | G81H | 2.3 | 2.02 | 3.21 | 6.5
23 | G81A | 2.7 | 2.06 | 2.97 | 6.1
24 | G81N | 2.7 | 1.94 | 3.16 | 6.1
25 | G81T | 3.2 | 1.96 | 2.84 | 5.6
26 | G81K | 2.7 | 2.06 | 2.97 | 6.1
27 | G81D | 3.2 | 1.99 | 2.83 | 5.6
28 | E76G | 2.2 | 1.81 | 3.64 | 6.6
29 | E76A | 1.2 | 1.94 | 3.93 | 7.6
30 | E76S | 1.2 | 1.93 | 3.94 | 7.6
31 | Q78A | 0.3 | 1.83 | 4.62 | 8.5
32 | Q78S | -0.3 | 2.05 | 4.44 | 9.1
33 | Q78G | 1.1 | 1.89 | 4.07 | 7.7
34 | H65K W141L | 2.7 | 1.8 | 3.37 | 6.1
35 | T63A | 0.5 | 1.88 | 4.43 | 8.3
36 | T73D | 0 | 1.95 | 4.53 | 8.8
